This passage reports Kd results from patent US20220332804A1 (CSL INNOVATION, published 2022).

Holding throughout (experiment): SPR, mAb captured, C2 mutant analyte;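 note: Anti-C2 mAbs captured on goat anti-human IgG Biacore CM5 chips, alanine or serine C2 surface mutants flowed over at 37 °C, double-referenced sensorgrams fitted to a 1:1 binding model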
One assay addresses T1, human C2 A444S (human, UniProt P06681 21-752).
T1 sequence: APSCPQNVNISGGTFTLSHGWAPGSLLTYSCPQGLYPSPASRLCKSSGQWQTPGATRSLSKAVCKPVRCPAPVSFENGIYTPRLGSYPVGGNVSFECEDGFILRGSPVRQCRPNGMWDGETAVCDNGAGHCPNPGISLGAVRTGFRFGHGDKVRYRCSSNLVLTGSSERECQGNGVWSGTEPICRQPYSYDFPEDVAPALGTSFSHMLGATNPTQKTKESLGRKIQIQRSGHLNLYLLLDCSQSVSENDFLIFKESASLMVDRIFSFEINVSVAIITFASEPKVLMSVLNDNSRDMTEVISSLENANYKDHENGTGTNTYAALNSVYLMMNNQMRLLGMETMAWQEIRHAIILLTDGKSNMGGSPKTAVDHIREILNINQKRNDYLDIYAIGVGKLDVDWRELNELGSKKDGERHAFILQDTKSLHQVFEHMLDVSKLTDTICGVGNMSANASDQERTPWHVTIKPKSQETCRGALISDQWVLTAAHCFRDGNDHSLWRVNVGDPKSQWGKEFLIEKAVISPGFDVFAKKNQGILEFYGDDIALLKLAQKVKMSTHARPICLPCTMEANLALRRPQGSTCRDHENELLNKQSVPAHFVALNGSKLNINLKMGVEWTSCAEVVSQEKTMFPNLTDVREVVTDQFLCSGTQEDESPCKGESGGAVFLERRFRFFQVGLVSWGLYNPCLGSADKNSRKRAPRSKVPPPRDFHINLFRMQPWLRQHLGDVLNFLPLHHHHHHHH

In another assay the target is T2, human C2 R688A (human, UniProt P06681 21-752).
T2 sequence: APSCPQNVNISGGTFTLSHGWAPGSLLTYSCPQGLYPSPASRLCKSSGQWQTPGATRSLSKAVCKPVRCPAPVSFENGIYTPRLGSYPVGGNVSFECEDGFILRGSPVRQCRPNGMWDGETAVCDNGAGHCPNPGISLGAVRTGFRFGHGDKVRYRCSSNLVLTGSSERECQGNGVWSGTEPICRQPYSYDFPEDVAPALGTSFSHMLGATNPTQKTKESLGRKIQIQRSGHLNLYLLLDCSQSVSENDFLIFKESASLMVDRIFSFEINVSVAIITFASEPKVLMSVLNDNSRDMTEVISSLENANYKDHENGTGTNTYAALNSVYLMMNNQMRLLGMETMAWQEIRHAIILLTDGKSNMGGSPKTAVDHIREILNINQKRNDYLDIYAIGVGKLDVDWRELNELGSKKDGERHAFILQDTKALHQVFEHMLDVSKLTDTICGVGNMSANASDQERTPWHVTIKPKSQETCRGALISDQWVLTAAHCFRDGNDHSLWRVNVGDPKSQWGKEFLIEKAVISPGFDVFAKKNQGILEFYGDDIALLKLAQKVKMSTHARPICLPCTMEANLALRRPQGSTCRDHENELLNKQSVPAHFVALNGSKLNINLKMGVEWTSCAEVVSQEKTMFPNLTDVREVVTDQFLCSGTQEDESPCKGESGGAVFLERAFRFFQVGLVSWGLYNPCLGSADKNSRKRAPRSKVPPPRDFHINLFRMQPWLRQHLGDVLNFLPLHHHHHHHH

Another assay concerns the target T3, human C2 I272A (human, UniProt P06681 21-752).
T3 sequence: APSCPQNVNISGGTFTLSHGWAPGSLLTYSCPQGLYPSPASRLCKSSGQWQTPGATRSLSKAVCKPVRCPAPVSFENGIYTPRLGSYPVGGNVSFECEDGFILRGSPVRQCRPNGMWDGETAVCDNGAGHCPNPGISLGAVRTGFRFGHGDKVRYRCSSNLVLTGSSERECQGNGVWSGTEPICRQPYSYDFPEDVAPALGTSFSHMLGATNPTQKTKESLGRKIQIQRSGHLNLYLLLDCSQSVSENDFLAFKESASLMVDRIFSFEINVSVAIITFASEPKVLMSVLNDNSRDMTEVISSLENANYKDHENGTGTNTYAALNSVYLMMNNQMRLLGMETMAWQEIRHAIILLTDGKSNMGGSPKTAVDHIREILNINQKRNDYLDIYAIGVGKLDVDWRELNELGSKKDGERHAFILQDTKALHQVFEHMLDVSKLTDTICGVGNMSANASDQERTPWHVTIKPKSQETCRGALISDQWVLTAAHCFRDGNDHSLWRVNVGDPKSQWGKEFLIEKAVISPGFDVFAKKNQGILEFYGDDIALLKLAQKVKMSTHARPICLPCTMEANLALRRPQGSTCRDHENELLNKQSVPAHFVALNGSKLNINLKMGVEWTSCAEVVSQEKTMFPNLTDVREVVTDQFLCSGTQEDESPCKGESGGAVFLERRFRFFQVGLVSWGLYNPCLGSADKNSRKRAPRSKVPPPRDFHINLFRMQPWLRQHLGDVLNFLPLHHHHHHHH

In a further assay the target is T4, human C2 K244A (human, UniProt P06681 21-752).
T4 sequence: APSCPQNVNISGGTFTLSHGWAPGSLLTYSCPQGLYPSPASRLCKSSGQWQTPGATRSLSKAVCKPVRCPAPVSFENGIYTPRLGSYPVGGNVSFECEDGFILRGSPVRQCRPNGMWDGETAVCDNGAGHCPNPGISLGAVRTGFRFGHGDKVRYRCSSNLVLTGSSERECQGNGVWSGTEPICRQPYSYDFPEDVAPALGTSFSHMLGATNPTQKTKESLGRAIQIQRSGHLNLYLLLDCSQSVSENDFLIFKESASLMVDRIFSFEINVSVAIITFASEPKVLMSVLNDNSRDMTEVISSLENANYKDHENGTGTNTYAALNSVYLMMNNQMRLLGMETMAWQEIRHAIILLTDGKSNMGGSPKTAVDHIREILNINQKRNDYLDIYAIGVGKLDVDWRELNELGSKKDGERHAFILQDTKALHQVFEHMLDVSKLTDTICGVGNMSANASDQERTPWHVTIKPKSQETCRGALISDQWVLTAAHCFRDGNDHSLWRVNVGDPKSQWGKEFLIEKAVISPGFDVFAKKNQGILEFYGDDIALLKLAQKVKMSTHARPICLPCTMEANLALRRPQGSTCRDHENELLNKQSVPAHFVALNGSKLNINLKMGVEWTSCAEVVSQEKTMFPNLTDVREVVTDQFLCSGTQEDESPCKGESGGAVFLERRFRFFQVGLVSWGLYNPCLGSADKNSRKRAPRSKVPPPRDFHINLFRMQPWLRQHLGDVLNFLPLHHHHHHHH

As a reminder, the Kd is the free concentration of one partner at which half of the binding sites on the other are occupied at equilibrium, for simple one-to-one binding. Low values mean a tighter complex, high ones a looser complex.

B1: RF16-214 (antibody, V domains shown)
VH: EVQLLESGGGLVQPGGSLRLSCAASGFTFSWYQMMWVRQAPGKGLEWVSRIYPSGGGTAYADSVKGRFTISRDNSKNTLYLQMNSLRAEDTAVYYCARDAGYGDNWGQGTLVTVSS
VL: QSALTQPPSVSVSPGQTASITCSGDKLGEKYASWYQQKAGQSPVMVIYQDRKRPSGIPERFSGSNSGNTATLTISGTQAMDEADYYCQAWDTRAVVFGGGTKLTVLG
On to B1, for which the Kd came to 20.7 nM in the assay with human C2 A444S, 96.2 nM in the assay with human C2 R688A, 477 nM with human C2 I272A and 97.1 nM with human C2 K244A.
